Where two headings read alike, the source gives them in different places.
How the values were obtained:
[1] = Ex vivo biodistribution of 177Lu-labeled peptide tetramers in H2009 xenografted SCID mice; settings: CB17 SCID, mouse, iv, total radioactivity, H2009 bearing SCID mice; for tissue uptake at 1.5 h / tissue to tissue ratio at 1.5 h: 43 pmol, 90 min p.i.; for tissue uptake at 72 h / tissue to tissue ratio at 72 h: 64 pmol, 3 d p.i.
Outline: (§1)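 SCID mice carried subcutaneous H2009 xenografts on the right shoulder. 177Lu-labeled conjugates were injected i.v., and ex vivo organ distribution was measured at two time points post-injection.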

[2] = test system: αvβ6-integrin expressing human lung adenocarcinoma cell line H2009 xenografts; test: as above; settings: H2009 bearing SCID mice
Outline: as §1

[3] = H2009 tumor, read-out: Tumor H2009 %IA/g
[4] = adrenals, read-out: Adrenals %IA/g
[5] = heart (myocard), read-out: Heart (myocard) %IA/g
[6] = kidneys, read-out: Kidneys %IA/g
[7] = large intestine (empty), read-out: Large intestine (empty) %IA/g
[8] = pancreas, read-out: Pancreas %IA/g
[9] = small intestine (empty), read-out: Small intestine (empty) %IA/g
[10] = stomach (empty), read-out: Stomach (empty) %IA/g
[11] = tumor/blood, read-out: tumor/organ ratio, Blood
[12] = tumor/heart (myocard), read-out: tumor/organ ratio, Heart (myocard)
[13] = tumor/liver, read-out: tumor/organ ratio, Liver
[14] = tumor/lung, read-out: tumor/organ ratio, Lung
[15] = tumor/pancreas, read-out: tumor/organ ratio, Pancreas
[16] = tumor/spleen, read-out: tumor/organ ratio, Spleen

Q: Which tissue uptake at 1.5 h [1, 3] does the source give for `CC(C)C[C@@H]1NC(=O)[C@H](CC(=O)O)NC(=O)CNC(=O)[C@H](CCCNC(=N)N)NC(=O)[C@H](Cc2ccccc2)NC(=O)[C@H](CCCCNC(=O)CCc2cn(CCCNC(=O)CCP(=O)(O)CN3CCN(CP(=O)(O)CCC(=O)NCCCn4cc(CCC(=O)NCCCC[C@H]5C(=O)N[C@@H](Cc6ccccc6)C(=O)N[C@@H](CCCNC(=N)N)C(=O)NCC(=O)N[C@@H](CC(=O)O)C(=O)N[C@@H](CC(C)C)C(=O)N[C@@H](C)C(=O)N[C@@H](Cc6ccc(O)cc6)C(=O)N6CCC[C@@H]6C(=O)N5C)nn4)CCN(CP(=O)(O)CCC(=O)NCCCn4cc(CCC(=O)NCCCC[C@H]5C(=O)N[C@@H](Cc6ccccc6)C(=O)N[C@@H](CCCNC(=N)N)C(=O)NCC(=O)N[C@@H](CC(=O)O)C(=O)N[C@@H](CC(C)C)C(=O)N[C@@H](C)C(=O)N[C@@H](Cc6ccc(O)cc6)C(=O)N6CCC[C@@H]6C(=O)N5C)nn4)CCN(CP(=O)(O)CCC(=O)NCCCn4cc(CCC(=O)NCCCC[C@H]5C(=O)N[C@@H](Cc6ccccc6)C(=O)N[C@@H](CCCNC(=N)N)C(=O)NCC(=O)N[C@@H](CC(=O)O)C(=O)N[C@@H](CC(C)C)C(=O)N[C@@H](C)C(=O)N[C@@H](Cc6ccc(O)cc6)C(=O)N6CCC[C@@H]6C(=O)N5C)nn4)CC3)nn2)N(C)C(=O)[C@H]2CCCN2C(=O)[C@H](Cc2ccc(O)cc2)NC(=O)[C@H](C)NC1=O` [Compound 177Lu-Y4, metal not drawn] here?
A: 6.91 %ID/g

Q: What about the tissue uptake at 72 h [1, 3] of the same compound?
A: 2.07 %ID/g

Q: And the tissue uptake at 1.5 h [1, 4]?
A: 0.52 %ID/g

Q: And the tissue uptake at 72 h [1, 4]?
A: 0.9 %ID/g

Q: What about the tissue uptake at 1.5 h ([1]; blood, read-out: Blood %IA/g) of the same compound?
A: 1.33 %ID/g

Q: And the tissue uptake at 72 h ([1]; blood, read-out: Blood %IA/g)?
A: 0.02 %ID/g

Q: What about the tissue uptake at 1.5 h ([1]; bone, read-out: Bone %IA/g) of the same compound?
A: 1.84 %ID/g

Q: What about the tissue uptake at 72 h ([1]; bone, read-out: Bone %IA/g) of the same compound?
A: 0.55 %ID/g

Q: And the tissue uptake at 1.5 h [1, 5]?
A: 0.74 %ID/g

Q: What about the tissue uptake at 72 h [1, 5] of the same compound?
A: 0.27 %ID/g

Q: What about the tissue uptake at 1.5 h [1, 6] of the same compound?
A: 219 %ID/g

Q: And the tissue uptake at 72 h [1, 6]?
A: 203 %ID/g

Q: And the tissue uptake at 1.5 h [1, 7]?
A: 6.99 %ID/g

Q: And the tissue uptake at 72 h [1, 7]?
A: 1.33 %ID/g

Q: What about the tissue uptake at 1.5 h ([1]; liver, read-out: Liver %IA/g) of the same compound?
A: 1.06 %ID/g

Q: And the tissue uptake at 72 h ([1]; liver, read-out: Liver %IA/g)?
A: 0.88 %ID/g

Q: And the tissue uptake at 1.5 h ([1]; lung, read-out: Lung %IA/g)?
A: 6.74 %ID/g

Q: And the tissue uptake at 72 h ([1]; lung, read-out: Lung %IA/g)?
A: 1.21 %ID/g

Q: What about the tissue uptake at 1.5 h ([1]; muscle, read-out: Muscle %IA/g) of the same compound?
A: 1 %ID/g

Q: What about the tissue uptake at 72 h ([1]; muscle, read-out: Muscle %IA/g) of the same compound?
A: 0.28 %ID/g

Q: What about the tissue uptake at 1.5 h [1, 8] of the same compound?
A: 0.37 %ID/g

Q: And the tissue uptake at 72 h [1, 8]?
A: 0.19 %ID/g

Q: What about the tissue uptake at 1.5 h [1, 9] of the same compound?
A: 3.05 %ID/g

Q: And the tissue uptake at 72 h [1, 9]?
A: 0.26 %ID/g

Q: And the tissue uptake at 1.5 h ([1]; spleen, read-out: Spleen %IA/g)?
A: 4.71 %ID/g

Q: And the tissue uptake at 72 h ([1]; spleen, read-out: Spleen %IA/g)?
A: 1.31 %ID/g

Q: And the tissue uptake at 1.5 h [1, 10]?
A: 10.7 %ID/g

Q: And the tissue uptake at 72 h [1, 10]?
A: 3.88 %ID/g

Q: And the tissue to tissue ratio at 72 h ([1]; tumor / adrenals, read-out: tumor/organ ratio, Adrenals)?
A: 4.1

Q: And the tissue to tissue ratio at 72 h ([1]; tumor / bone, read-out: tumor/organ ratio, Bone)?
A: 3.8

Q: And the tissue to tissue ratio at 72 h ([1]; tumor / large intestine (empty), read-out: tumor/organ ratio, Large intestine (empty))?
A: 1.6

Q: And the tissue to tissue ratio at 72 h ([1]; tumor / muscle, read-out: tumor/organ ratio, Muscle)?
A: 9.1

Q: And the tissue to tissue ratio at 72 h ([1]; tumor / small intestine (empty), read-out: tumor/organ ratio, Small intestine (empty))?
A: 8.2

Q: What about the tissue to tissue ratio at 72 h ([1]; tumor / stomach (empty), read-out: tumor/organ ratio, Stomach (empty)) of the same compound?
A: 0.6

Q: And the tissue to tissue ratio at 1.5 h ([1]; tumor/adrenals, read-out: tumor/organ ratio, Adrenals)?
A: 13.9

Q: And the tissue to tissue ratio at 1.5 h [1, 11]?
A: 5.2

Q: What about the tissue to tissue ratio at 72 h [1, 11] of the same compound?
A: 108

Q: And the tissue to tissue ratio at 1.5 h ([1]; tumor/bone, read-out: tumor/organ ratio, Bone)?
A: 3.8

Q: What about the tissue to tissue ratio at 1.5 h [1, 12] of the same compound?
A: 9.6

Q: And the tissue to tissue ratio at 72 h [1, 12]?
A: 8.2

Q: What about the tissue to tissue ratio at 1.5 h ([1]; tumor/large intestine (empty), read-out: tumor/organ ratio, Large intestine (empty)) of the same compound?
A: 1

Q: What about the tissue to tissue ratio at 1.5 h [1, 13] of the same compound?
A: 6.6

Q: And the tissue to tissue ratio at 72 h [1, 13]?
A: 2.6

Q: And the tissue to tissue ratio at 1.5 h [1, 14]?
A: 1

Q: What about the tissue to tissue ratio at 72 h [1, 14] of the same compound?
A: 1.7

Q: And the tissue to tissue ratio at 1.5 h ([1]; tumor/muscle, read-out: tumor/organ ratio, Muscle)?
A: 8.2

Q: And the tissue to tissue ratio at 1.5 h [1, 15]?
A: 18.6

Q: And the tissue to tissue ratio at 72 h [1, 15]?
A: 11.3

Q: And the tissue to tissue ratio at 1.5 h ([1]; tumor/small intestine (empty), read-out: tumor/organ ratio, Small intestine (empty))?
A: 2.6

Q: And the tissue to tissue ratio at 1.5 h [1, 16]?
A: 1.5

Q: And the tissue to tissue ratio at 72 h [1, 16]?
A: 1.7

Q: And the tissue to tissue ratio at 1.5 h ([1]; tumor/stomach (empty), read-out: tumor/organ ratio, Stomach (empty))?
A: 0.7

Q: What about the “tumor/organ ratio, Kidneys” value ([2]; 90 min p.i.) of the same compound?
A: 0.0

Q: And the “tumor/organ ratio, Kidneys” value ([2]; 3 d p.i.)?
A: 0.0
